From patent US12012599B2, “Compositions and methods for modulating left-right differentiation factor (LEFTY) and bone morphogenic factor (BMP)” (CZ Biohub SF LLC, priority 2018, dated 2024)

T1: BMP7-BMPR2 interaction (Homo sapiens, UniProt Q13873)
T1 construct: endogenous in cells; host or cells: MDA-MB-231
T1 sequence (Q13873 27-1038): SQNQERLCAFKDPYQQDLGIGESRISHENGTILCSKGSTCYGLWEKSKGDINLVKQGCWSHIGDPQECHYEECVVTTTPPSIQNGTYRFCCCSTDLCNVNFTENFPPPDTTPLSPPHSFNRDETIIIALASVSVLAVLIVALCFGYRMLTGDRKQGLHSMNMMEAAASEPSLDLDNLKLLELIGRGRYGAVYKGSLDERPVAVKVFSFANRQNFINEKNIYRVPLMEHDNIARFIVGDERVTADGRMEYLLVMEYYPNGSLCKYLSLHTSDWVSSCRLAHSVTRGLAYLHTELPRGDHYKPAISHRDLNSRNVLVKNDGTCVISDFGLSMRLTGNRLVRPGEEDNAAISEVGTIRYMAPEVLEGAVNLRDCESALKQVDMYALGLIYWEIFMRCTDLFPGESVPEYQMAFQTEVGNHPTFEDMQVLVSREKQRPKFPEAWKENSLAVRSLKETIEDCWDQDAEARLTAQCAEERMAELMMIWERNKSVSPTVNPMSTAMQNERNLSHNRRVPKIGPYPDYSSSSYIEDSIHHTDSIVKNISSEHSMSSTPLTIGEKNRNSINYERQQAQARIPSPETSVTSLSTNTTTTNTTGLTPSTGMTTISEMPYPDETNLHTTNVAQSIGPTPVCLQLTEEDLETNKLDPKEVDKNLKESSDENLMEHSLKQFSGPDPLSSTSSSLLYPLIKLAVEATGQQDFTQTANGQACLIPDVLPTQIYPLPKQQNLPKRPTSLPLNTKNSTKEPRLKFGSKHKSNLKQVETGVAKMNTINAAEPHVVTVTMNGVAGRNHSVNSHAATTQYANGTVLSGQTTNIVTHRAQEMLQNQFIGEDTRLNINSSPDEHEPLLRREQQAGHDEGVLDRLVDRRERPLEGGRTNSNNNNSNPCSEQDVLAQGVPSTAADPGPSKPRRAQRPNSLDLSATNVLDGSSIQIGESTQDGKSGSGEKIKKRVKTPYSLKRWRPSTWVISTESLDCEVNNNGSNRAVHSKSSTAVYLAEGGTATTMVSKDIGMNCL


Experiments:
mammary epithelial cells = test: Mammary outgrowth formation on transplantation (ELDA); format: in vivo, mouse; settings: primary transplantation
From the text: FIGS. 10A-10G. Mammary epithelial cells rely on LEFTY1 for their long-term proliferation potential. FIG. 10A is a schematic representation of the procedure used to inject control, LEFTY1- or BMP7-expressing mammary fibroblasts into the proximity of the mammary gland of 14-18 weeks old NSG female mice. Two to three weeks later, the mammary epithelial cells were isolated and injected in a limiting dilution fashion into weaning age […] mice to assess their engraftment potential. […] The next day, the transduced cells were injected in the cleared fat-pads of weaning age mice in order to test their exogenous mammary epithelial repopulation ability. […]
FIGS. 11A-11F. […] The number of positive outgrowths from the total of transplanted glands are shown, as well as the frequency and 95% CI of engrafting cells calculated by ELDA. […] The frequency and 95% CI was calculated using extreme limiting dilution analysis (ELDA). […]
Alteration of signaling pathways such as Wnt, Hedgehog and Notch results in branching phenotypes that may be linked to the frequency of cells that can be transplanted and originate mammary ducts in recipient mice (Lu & Werb, Science 322, 1506-1509 (2008)). We transplanted endogenous mammary epithelial cells that had been exposed to LEFTY1 or BMP7 for ^˜15 days in vivo and assessed ductal outgrowth formation upon transplantation into secondary recipients (FIG. 10A). […]

BMP7-BMPR2 interaction = molecular target: T1, BMP7-BMPR2 interaction; test: Proximity Ligation Assay of BMP7-BMPR2 interaction in MDA-MB-231; format: cell-based; settings: 50 ng/mL BMP7 30 minutes, exogenous LEFTY 200 ng/mL
Description: FIGS. 20 and 21 are data from an experiment in which the breast cancer cell line MDA-MB-231 was plated and serum starved for 24 hours. 50 ng/mL BMP7 was added for 30 minutes to activate pSMAD5, either in the absence or presence of exogenous LEFTY (200 ng/mL). LEFTY-BMPR2 interaction, BMP7-BMPR2 interaction (as visualized by Proximity Ligation Assay, red), pSMAD5 status (As visualized by Immunofluorescence, green) were monitored and captured.
For the PLA assay (DUOLink, OLink Biosciences, Sigma-Aldrich #DUO92102), cells were seeded and treated on 13 mm glass coverslips previously coated with Poly-L-Lysine (Millipore). The cells were fixed with ice cold 100% Methanol for 5 minutes at −20° C. and then rehydrated thrice in PBS for 5 min each. Coverslips were blocked for 30 min with PBS+3% BSA and then incubated with appropriate dilution of primary antibodies in PBS+1% BSA for 1 h in a moist environment at room temperature. Rabbit anti-LEFTY1 and Thermo mouse anti-BMPR2 were used to characterize the interaction between LEFTY and BMPR2 (Table S2). […]
Breast cancer cell line MDA-MB-231 was plated and serum starved for 24 hours. […] LEFTY-BMPR2 interaction, BMP7-BMPR2 interaction (as visualized by Proximity Ligation Assay, red), pSMAD5 status (As visualized by Immunofluorescence, green) were monitored and captured.

BMP7-BMPR2 interaction (BMP7-BMPR2 interaction)	Molecule	frequency of ductal outgrowths (mammary epithelial cells)
	BMP7: bone morphogenetic protein 7, BMPR2 ligand (protein) STGSKQRSQNRSKTPKNQEALRMANVAENSSSDQRQACKKHELYVSFRDLGWQDWIIAPEGYAAYYCEGECAFPLNSYMNATNHAIVQTLVHFINPETVPKPCCAPTQLNAISVLYFDDSSNVILKKYRNMVVRACGCH	did not affect
reduces BMP7-BMPR2 interactions	LEFTY1: left-right determination factor 1, secreted TGF-β superfamily protein; generic LEFTY may mean LEFTY1 or LEFTY2 (protein, UniProt O75610 77-366, looked up) Left-right determination …: RFSQSFREVAGRFLALEASTHLLVFGMEQRLPPNSELVQAVLRLFQEPVPKAALHRHGRLSPRSARARVTVEWLRVRDDGSNRTSLIDSRLVSVHESGWKAFDVTEAVNFWQQLSRPRQPLLLQVSVQREHLGPLASGAHKLVRFASQGAPAGLGEPQLELHTLDLGDYGAQGDCDPEAPMTEGTRCCRQEMYIDLQGMKWAENWVLEPPGFLAYECVGTCRQPPEALAFKWPFLGPRQCIASETDSLPMIVSIKEGGRTRPQVVSLPNMRVQKCSCASDGALVPRRLQP	significantly increased
